# Measurements from the supplement of paper PMC12042874.
# ± gives the uncertainty stated by the source.
# Assay: amyloid nucleation score (Sup35N fusion, yeast selection) (log enrichment); library NNK3; higher = more nucleation; inactive = no reads after selection
# Method in brief: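 Psi-negative yeast expressed Sup35N fused to peptides of 20 random codons. They were induced 24 hours with 100 μM copper sulfate, grown 7 days at 30°C without adenine and uracil, and their plasmid inserts from input and output were Illumina-sequenced. The nucleation score is the DiMSum log enrichment of output over input reads, centred on the mode score of non-aggregating sequences. Sequences with under 100 input reads were excluded.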
row,Substance,amyloid nucleation score
1,NFPYYSEYFFLCIRDSTSKS,inactive
2,NFQNSVLFNMV,inactive
3,NFSFGGLIISGCIMRNWGLQ,2.92 ± 0.077
4,NFSVTYEFFGQSI,0.292 ± 0.32
5,NFTRC,inactive
6,NFWEYQSECWRVTQW,inactive
7,NGCSS,inactive
8,NGCTW,inactive
9,NGDYDIIRSTCYTSKVYQSV,inactive
10,NGFSFRLGWH,1.55 ± 0.1
11,NGLGSTRMNQGHKLVFTNSI,inactive
12,NGLVCQKWRPYSI,inactive
13,NGNFWCFVLVLS,0.595 ± 0.24
14,NGSGGWLNINNISEGRWRTG,inactive
15,NGTATADRSNKSVPFPSI,inactive
16,NGWCHYWVWASIYDPNEISA,inactive
17,NGWYKVGLMA,inactive
18,NGYTNASS,inactive
19,NHKPLWFFDVATTGTGLNR,inactive
20,NHSES,inactive
21,NIDFLLSYRTMSKFYPNIRM,inactive
22,NIFRMRNQVIRSVLNVHVMT,inactive
23,NILLND,inactive
24,NIRYFYAFRLA,inactive
25,NISLELDVFCTTNNMG,1.74 ± 0.089
26,NISVLIRCLWNFSEGKAFLA,inactive
27,NIVERGSDLRGLCKTFNDIA,inactive

row,Substance,amyloid nucleation score
1,NKAYCWTLYLGMINDCIRFY,inactive
2,NKKSSAMYCQGIFLTFILLV,inactive
3,NKLCYSSDLYWRVTDKDEHR,inactive
4,NKSRTYCSARRLHRGKFRLI,inactive
5,NLAMWMDSECLRVSN,inactive
6,NLAYTMRGTELICTYVSILP,inactive
7,NLCDVGRMLNCRRTSFGYMF,inactive
8,NLCRAI,0.256 ± 0.36
9,NLCVMPRTTGPLS,inactive
10,NLEEHIRCFKGDRDPYLFF,inactive
11,NLFMMHV,inactive
12,NLFYNEEDVLIQFVYQRTIW,inactive
13,NLGLQDFNCNWGFTYGGLTK,inactive
14,NLHTTEIKFSPLLWKISSTW,0.313 ± 0.34
15,NLKSWFFCIVHCIRLHASVN,inactive
16,NLLAMRLWQAQSMKRSLGFL,inactive
17,NLLKSTYSVIASCASLLDLV,inactive
18,NLNYWAFDYADKLIEHSCVR,inactive
19,NLPHIYRDHRRFWVGFSIMT,1.12 ± 0.17
20,NLRSS,inactive
21,NLSALMLLLQDRDRAISRPR,0.919 ± 0.21
22,NLSRLKRFYIANSR,inactive
23,NLTLVVHYISRQSISEHYLR,inactive
24,NLVRSDSVRFAYVKWGPMHG,inactive
25,NLVSVSRSYIKCVDRHRRTA,inactive
26,NMDSVV,inactive
27,NMETYLFANVMLFGKPGLLS,1.01 ± 0.12

row,Substance,amyloid nucleation score
1,NMHRNSSIRDRSVIRTWGMV,inactive
2,NMIKPSFFIIVVVNTQGFDA,2.97 ± 0.063
3,NMIWANEQE,inactive
4,NMMSGRSQSVINFVYVDFHP,-0.183 ± 0.66
5,NMRCSIHARGSRHGVRDDTQ,inactive
6,NMRKLVCDMEIWMIFCAKSN,0.505 ± 0.28
7,NMSPGEP,inactive
8,NMTTGYGAMGFRVVEAWFGC,1.13 ± 0.11
9,NMVDCGISLV,inactive
10,NMVNAIFSAVGLQGFRLFPR,inactive
11,NMWWNGSETNCESRVFEIET,inactive
12,NNCRSLY,0.927 ± 0.21
13,NNCSQVHKTRD,inactive
14,NNCVGCPCFSYRS,3.04 ± 0.072
15,NNDYADLRWGKSVGKASGWG,inactive
16,NNFRVNVHIIALVPECYFRL,2.44 ± 0.077
17,NNGFGSWGV,inactive
18,NNLEFQFNWRLEVGFC,inactive
19,NNNFRKDSS,inactive
20,NNYVMA,-0.231 ± 1.1
21,NPDLVFWFKYLWYDGSCQ,inactive
22,NPETASLNLIKMSMHVSSFV,inactive
23,NPLCTSYNQHPRGYHALTYN,inactive
24,NPRTRFILNLPVFPSYHEHP,inactive
25,NQALNILFYLNSSKSCVYPY,2.47 ± 0.063
26,NQARHRSSIRRCG,inactive
